The target in assay [1] is T1, recombinant human CD79b protein (human, UniProt P40259 29-159, limits assumed).
T1 sequence (looked up): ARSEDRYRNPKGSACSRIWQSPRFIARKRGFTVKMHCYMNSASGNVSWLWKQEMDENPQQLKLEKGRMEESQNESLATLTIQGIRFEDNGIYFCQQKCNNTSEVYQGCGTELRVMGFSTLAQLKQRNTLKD
In words: column EC50(ng/ml) of the drawn table; the table names no assay, the filing's only titration is the ELISA on recombinant human CD79b protein of FIG. 2B. For orientation: In an ELISA, binding on a coated surface is turned into a signal by an enzyme label.

In assay [2] the target is T1, recombinant human CD79b protein. The assay can be described thus: ELISA on recombinant human CD79b protein.
Assay [3] shares this target. The assay can be described thus: Octet assay. (In general: BLI is a label-free optical method that tracks binding on a fibre tip over time.)

B1: anti-human CD79b monoclonal antibody clone 14 (IgG1) (antibody, V domains shown)
VH: EVQLQESGPELKKPGETVKISCKASGYTFTDYSMHWVKQAPGKGLKWMGWINTETGEPTYADDFKGRFAFSLETSASTAYLQINNLKNDDTATYFCNMDSWGQGTSVTVSS
VL: QIVLTQSPAIMSASPGEKVTMTCSASSSVSYMWWYHQKPGSSPRLLIFDTSNLASGVPVRFSGSGSGTSYSLTISRMEAEDAATYYCQQWTSYPYTFGGGTKLEIK
notes: Murine hybridoma antibody, IgG1; It was conjugated with a fluorochrome for cell staining
The EC50 is the concentration at which the effect is half-maximal. The term EC50 (read off the curve) denotes the concentration needed to bring the measured effect to its halfway point. Usually Kd stands for the free concentration of one partner at which half of the binding sites on the other are occupied at equilibrium, for simple one-to-one binding. With B1, the EC50 in assay [1] turned out to be 0.0162 µg/mL. Moreover, the “EC50 (read off the curve)” value in assay [2] was ~0.02 µg/mL. Further, in assay [3], the dissociation constant Kd was found to be 1.44 nM.

The record behind these values is patent publication US20210317209A1 (University of Texas, published 2021).
